According to the Human Domainome abundance scans (Beltran et al. 2025):
± gives the uncertainty stated by the source.

B1: POU domain, class 3, transcription factor 2, residues 262 to 338; numbered along this chain, P20265 (parent)
chain: EDTPTSDDLEQFAKQFKQRRIKLGFTQADVGLALGTLYGNVFSQTTICRFEALQLSFKNMCKLKPLLNKWLEEADSS

Variants of: B1
Experiment: abundance fitness (aPCA) (normalised: wild type 0, dead -1); higher = more abundant; growth selection in yeast, the domain comes from the species named
Conditions: Homo sapiens

Going from EDTPTSDDLEQFAKQFKQRRIKLGFTQADVGLALGTLYGNVFSQTTICRFEALQLSKKNMCKLKPLLNKWLEEADSS to EDTPTSDDLEQFAKQFKQRRIKLGFTQADVGLALGTLYGNVFSQTTICRFEALQLSEKNMCKLKPLLNKWLEEADSS, the abundance fitness falls from 0.026 ± 0.042 to -0.071 ± 0.034.

First: EDTPTSDDLEQFAKQFKQRRIKLGFTQADVGLALGTLYGNVFSQTTICRFEALQLSCKNMCKLKPLLNKWLEEADSS
Second: EDTPTSDDLEQFAKQFKQRRIKLGFTQADVGLALGTLYGNVFSQTTICRFEALQLSLKNMCKLKPLLNKWLEEADSS
The abundance fitness of the first is lower: -0.516 ± 0.068 for the first, -0.077 ± 0.03 for the second.

Compared with EDTPTSDDLEQFAKQFKQRRIKLGFTQADVGLALGTLYGNVFSQTTICRFEALQLPFKNMCKLKPLLNKWLEEADSS, EDTPTSDDLEQFAKQFKQRRIKLGFTQADVGLALGTLYGNVFSQTTICRFEALQLMFKNMCKLKPLLNKWLEEADSS is lower in abundance fitness: 0.044 ± 0.047 for the first, -0.81 ± 0.15 for the second.

First: EDTPTSDDLEQFAKQFKQRRIKLGFTQADVGLALGTLYGNVFSQTTICRFEALQLAFKNMCKLKPLLNKWLEEADSS
Second: EDTPTSDDLEQFAKQFKQRRIKLGFTQADVGLALGTLYGNVFSQTTICRFEALQLLFKNMCKLKPLLNKWLEEADSS
The abundance fitness of the first is higher: -0.345 ± 0.043 for the first, -0.633 ± 0.06 for the second.

Compared with EDTPTSDDLEQFAKQFKQRRIKLGFTQADVGLALGTLYGNVFSQTTICRFEALQLEFKNMCKLKPLLNKWLEEADSS, EDTPTSDDLEQFAKQFKQRRIKLGFTQADVGLALGTLYGNVFSQTTICRFEALQLQFKNMCKLKPLLNKWLEEADSS is lower in abundance fitness: -0.128 ± 0.043 for the first, -0.385 ± 0.064 for the second.

Compared with EDTPTSDDLEQFAKQFKQRRIKLGFTQADVGLALGTLYGNVFSQTTICRFEALQLNFKNMCKLKPLLNKWLEEADSS, EDTPTSDDLEQFAKQFKQRRIKLGFTQADVGLALGTLYGNVFSQTTICRFEALQLCFKNMCKLKPLLNKWLEEADSS is lower in abundance fitness: -0.145 ± 0.078 for the first, -0.303 ± 0.056 for the second.

EDTPTSDDLEQFAKQFKQRRIKLGFTQADVGLALGTLYGNVFSQTTICRFEALQLTFKNMCKLKPLLNKWLEEADSS and EDTPTSDDLEQFAKQFKQRRIKLGFTQADVGLALGTLYGNVFSQTTICRFEALQLKFKNMCKLKPLLNKWLEEADSS are within error of each other in abundance fitness: -0.135 ± 0.041 for the first, -0.129 ± 0.047 for the second.

Compared with EDTPTSDDLEQFAKQFKQRRIKLGFTQADVGLALGTLYGNVFSQTTICRFEALQLRFKNMCKLKPLLNKWLEEADSS, EDTPTSDDLEQFAKQFKQRRIKLGFTQADVGLALGTLYGNVFSQTTICRFEALQLWFKNMCKLKPLLNKWLEEADSS is lower in abundance fitness: -0.366 ± 0.034 for the first, -0.801 ± 0.081 for the second.

EDTPTSDDLEQFAKQFKQRRIKLGFTQADVGLALGTLYGNVFSQTTICRFEALQLDFKNMCKLKPLLNKWLEEADSS and EDTPTSDDLEQFAKQFKQRRIKLGFTQADVGLALGTLYGNVFSQTTICRFEALQLGFKNMCKLKPLLNKWLEEADSS are within error of each other in abundance fitness: -0.093 ± 0.065 for the first, -0.101 ± 0.03 for the second.

First: EDTPTSDDLEQFAKQFKQRRIKLGFTQADVGLALGTLYGNVFSQTTICRFEALQLIFKNMCKLKPLLNKWLEEADSS
Second: EDTPTSDDLEQFAKQFKQRRIKLGFTQADVGLALGTLYGNVFSQTTICRFEALQESFKNMCKLKPLLNKWLEEADSS
The abundance fitness of the first is lower: -0.662 ± 0.14 for the first, -0.298 ± 0.037 for the second.

EDTPTSDDLEQFAKQFKQRRIKLGFTQADVGLALGTLYGNVFSQTTICRFEALQFSFKNMCKLKPLLNKWLEEADSS and EDTPTSDDLEQFAKQFKQRRIKLGFTQADVGLALGTLYGNVFSQTTICRFEALQISFKNMCKLKPLLNKWLEEADSS are within error of each other in abundance fitness: -0.277 ± 0.063 for the first, -0.364 ± 0.099 for the second.

EDTPTSDDLEQFAKQFKQRRIKLGFTQADVGLALGTLYGNVFSQTTICRFEALQNSFKNMCKLKPLLNKWLEEADSS and EDTPTSDDLEQFAKQFKQRRIKLGFTQADVGLALGTLYGNVFSQTTICRFEALQQSFKNMCKLKPLLNKWLEEADSS are within error of each other in abundance fitness: -0.633 ± 0.16 for the first, -0.506 ± 0.064 for the second.

Going from EDTPTSDDLEQFAKQFKQRRIKLGFTQADVGLALGTLYGNVFSQTTICRFEALQKSFKNMCKLKPLLNKWLEEADSS to EDTPTSDDLEQFAKQFKQRRIKLGFTQADVGLALGTLYGNVFSQTTICRFEALQGSFKNMCKLKPLLNKWLEEADSS, the abundance fitness falls from -0.409 ± 0.066 to -0.61 ± 0.031.

First: EDTPTSDDLEQFAKQFKQRRIKLGFTQADVGLALGTLYGNVFSQTTICRFEALQSSFKNMCKLKPLLNKWLEEADSS
Second: EDTPTSDDLEQFAKQFKQRRIKLGFTQADVGLALGTLYGNVFSQTTICRFEALQHSFKNMCKLKPLLNKWLEEADSS
The abundance fitness of the first is lower: -0.504 ± 0.045 for the first, -0.266 ± 0.08 for the second.

First: EDTPTSDDLEQFAKQFKQRRIKLGFTQADVGLALGTLYGNVFSQTTICRFEALQDSFKNMCKLKPLLNKWLEEADSS
Second: EDTPTSDDLEQFAKQFKQRRIKLGFTQADVGLALGTLYGNVFSQTTICRFEALQTSFKNMCKLKPLLNKWLEEADSS
The abundance fitness of the first is higher: -0.369 ± 0.061 for the first, -0.583 ± 0.069 for the second.

Going from EDTPTSDDLEQFAKQFKQRRIKLGFTQADVGLALGTLYGNVFSQTTICRFEALQWSFKNMCKLKPLLNKWLEEADSS to EDTPTSDDLEQFAKQFKQRRIKLGFTQADVGLALGTLYGNVFSQTTICRFEALQCSFKNMCKLKPLLNKWLEEADSS, the abundance fitness rises from -0.645 ± 0.043 to -0.318 ± 0.045.

EDTPTSDDLEQFAKQFKQRRIKLGFTQADVGLALGTLYGNVFSQTTICRFEALQPSFKNMCKLKPLLNKWLEEADSS and EDTPTSDDLEQFAKQFKQRRIKLGFTQADVGLALGTLYGNVFSQTTICRFEALQASFKNMCKLKPLLNKWLEEADSS are within error of each other in abundance fitness: -0.586 ± 0.099 for the first, -0.567 ± 0.048 for the second.

First: EDTPTSDDLEQFAKQFKQRRIKLGFTQADVGLALGTLYGNVFSQTTICRFEALQVSFKNMCKLKPLLNKWLEEADSS
Second: EDTPTSDDLEQFAKQFKQRRIKLGFTQADVGLALGTLYGNVFSQTTICRFEALQYSFKNMCKLKPLLNKWLEEADSS
The abundance fitness of the first is lower: -0.573 ± 0.039 for the first, -0.285 ± 0.062 for the second.
